Laboratory results from patent publication US6570069B1, “Nucleic acids encoding plant inhibitors of apoptosis and transgenic cells and plants expressing them” (priority 2000, dated 2003).

How the values were obtained:
[1] = system: DEVD-cleaving proteases in cell extracts treated with caspase-8; test: Cell-free caspase activation induced by active caspase-8 in HEK 293 cytosolic extracts; format: biochemical, human; settings: recombinant protein
Description: (§1) Caspase activity was assayed by release of 7-amino-4-trifluoromethyl-coumarin (AFC) from Ac-DEVD or Ac-LEHD-containing synthetic peptides (Calbiochem) using continuous-reading instuments as described (Quan, L. T. et al., (1995) J. Biol. Chem. 270:10377-10379).
Cytosolic extracts were prepared as described (Deveraux, Q., Takahashi, R., Salvesen, G. S. & Reed, J. C. (1997) Nature 388, 300-303) using human embryonic kidney (HEK) 293 cells. Cells were washed with ice-cold buffer A (20 mM HEPES pH 7.5, 10 mM KCl, 1.5 mM MgCl2, 1 mM EDTA and 1 mM DTT), suspended in 1 volume of buffer A, incubated on ice for 20 mins, and then disrupted by 15 passages through a 26-gauge needle. Cell extracts were purified by centrifugation at 15000 g for 12 mins and supernatants were stored at −80 ° C. For initiating caspase activation, either 100 nM of purified recombinant caspase-8 or 1 μM horse heart cytochrome c (Sigma) together with 1 mM dATP was added to extracts (Deveraux, Q. L., et al., (1998) EMBO J. 17, 2215-2223).
To further explore the mechanisms by which SfIAP and CpIAP inhibit mammalian apoptosis, a cell-free system in which exogenously added active caspase-8 or cyto c induces activation of caspase-3 and similar proteases, as measured by hydrolysis of Ac-DEVD-AFC (Quan, L. T. et al., (1995) J. Biol. Chem. 270, 10377-10379) was used. […]

[2] = target: T1, pro-caspase-9 (Homo sapiens, UniProt P55211); test: GST pull-down binding of [35S]-pro-caspase-9; set-up: species or system mammalian; settings: GST fusion protein on glutathione-Sepharose
T1 construct: host or cells: cell-free in vitro transcription/translation
T1 sequence (P55211 1-416): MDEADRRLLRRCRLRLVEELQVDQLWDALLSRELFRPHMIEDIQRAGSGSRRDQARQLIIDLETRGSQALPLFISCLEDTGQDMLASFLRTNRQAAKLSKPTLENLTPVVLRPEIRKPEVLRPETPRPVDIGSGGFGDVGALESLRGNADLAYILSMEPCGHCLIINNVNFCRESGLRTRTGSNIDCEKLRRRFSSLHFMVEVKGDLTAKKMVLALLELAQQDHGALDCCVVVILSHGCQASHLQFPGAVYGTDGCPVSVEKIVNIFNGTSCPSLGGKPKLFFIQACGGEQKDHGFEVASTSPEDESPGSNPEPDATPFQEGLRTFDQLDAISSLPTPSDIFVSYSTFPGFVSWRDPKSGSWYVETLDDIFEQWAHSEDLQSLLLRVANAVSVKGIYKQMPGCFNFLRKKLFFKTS
Description: [^35S]Pro-caspase-9 was in vitro transcribed and translated in the presence of [^35S]L-methionine using TNT kit from Promega. Protein were desalted and exchanged into buffer (20 mM HEPES pH 7.5, 10 mM KCl, 1.5 mM MgCl2, 1 mM EDTA and 1 mM DTT) with Bio-spin P-6 columns (Bio-Rad). […] After incubation at 4 ° C. for 1 hour, beads were removed by centrifugation and washed twice with 0.5 ml of 50 mM Tris (pH 7.5), 150 mM NaCl, 2 mm DTT before analysis by SDS-PAGE and autoradiography.

[3] = target: T2, caspase-3 (Homo sapiens, UniProt P42574); test: Inhibition of recombinant purified caspase-3; format: biochemical, mammalian; settings: in vitro
T2 construct: His6 (C); made in house
T2 sequence (P42574 29-175 limits assumed): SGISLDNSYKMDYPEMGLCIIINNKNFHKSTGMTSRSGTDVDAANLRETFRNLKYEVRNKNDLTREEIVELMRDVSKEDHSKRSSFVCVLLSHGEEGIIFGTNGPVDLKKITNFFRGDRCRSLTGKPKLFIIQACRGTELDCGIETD
T2 sequence (P42574 176-277 limits assumed): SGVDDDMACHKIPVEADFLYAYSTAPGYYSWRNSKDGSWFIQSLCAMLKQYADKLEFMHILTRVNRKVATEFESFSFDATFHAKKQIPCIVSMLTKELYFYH
Description: pGEX4T-1-SfIAP and pGEX4T-1 -CpIAP plasmids were introduced into E. coli strain BL21 (DE3) containing the plasmid pT-Trx. GST fusion proteins were obtained by induction with 0.05 mM IPTG at 25° C. for 8 hours, then purified using glutathione-Sepharose, essentially as described (Deveraux, Q., Welsh, K. & Reed, J. Methods of Enzymology in press). Caspases-3, and -7, containing C-terminal His6-tags, and caspase-8 containing an N-terminal His6-tag were purified as described previously (Stennicke, H. R. & Salvesen, G. S. (I1997) J. Biol. Chem. 272, 25719-25723; Stennicke, H., et al., (1998) J. Biol. Chem. 273, 27084-27090; Stennicke, H., et al., (1999) J. Biol. Chem. 274, 8359-8362). Caspase-9 lacking the CARD domain (ΔCARD-caspase-9) was constructed by truncating the cDNA and introducing a start codon substituting Val139. […] Concentrations of purified enzymes were determined from absorbance at 280 nm based on the molar absorption coefficients: caspase-3 (A280=26,000M−1 cm−1), caspase-7 (A280=24,500 M−1 cm−1), caspase-9 (A280=30,010M−1 cm−1).
as §1

B1: SfIAP: cellular IAP cloned from Spodoptera frugiperda, protein of 377 amino acids (SEQ ID NO:3); GST-fusion when recombinant (protein, listed as Spodoptera frugiperda)
chain: MWSCSLPCWNTKKSGLQMDITKVASNGSSSTLTLFKSGSLEAKIRPLAPLMLPTPSYDSNAGSPSLSPSTPCSSSSFSIDKTDNHDTFGFSADTVDMRKEDERMKTFEKWPVSFLSGEQLARNGFYYLGRRDEARCAFCKVEIMRWVEGDDPAKDHQRWAPQCPFVRKLNGTAAADTGSSGQDECGARAAPSGTSPPRMAGPVHPRYASEAARLRSFKDWPRCMRQKPEELAEAGFFYTGQGDKTKCFYCDGGLKDWENHDVPWEQHARWFDRCAYVQLVKGREYVQKVISEACEVSASEAERDVAPARTAEPSPPAEAPENSVDDSKLCKICYAEERNVCFVPCGHVVACAKCALAADKCPMCRRTFQNAVRLYFS
modifications: GST fusion when recombinant; fall armyworm inhibitor of apoptosis protein (SfIAP)
**Q.** Which “effect on DEVD-cleaving proteases” value [1] does the source give for B1 here?
**A.** Its value is “no effect on DEVD-cleaving proteases”.

**Q.** And the “binding to pro-caspase-9 (autoradiography)” value [2]?
**A.** Its value is “associated with pro-caspase-9”.

**Q.** What about the “inhibition of caspase-3” value [3] of the same molecule?
**A.** Its value is “nor inhibited”.

B2: CpIAP: baculoviral (CpGV) inhibitor of apoptosis protein; complete ORF expressed myc-tagged or as GST-fusion (protein)
chain: MSDLRLEEVRLNTFEKWPVSFLSPETMAKNGFYYLGRSDEVRCAFCKVEIMRWKEGEDPAADHKKWAPQCPFVKGIDVCGSIVTTNNIQNTTTHDTIIGPAHPKYAHEAARVKSFHNWPRCMKQRPEQMADAGFFYTGYGDNTKCFYCDGGLKDWEPEDVPWEQHVRWFDRCAYVQLVKGRDYVQKVITEACVLPGENTTVSTAAPVSEPIPETKIEKEPQVEDSKLCKICYVEECIVCFVPCGHVVACAKCALSVDKCPMCRKIVTSVLKVYFS
modifications: left off: a dimerising Fc or GST
notes: complete ORF expressed myc-tagged or as GST-fusion
**Q.** What does the source list for B2?
**A.** effect on DEVD-cleaving proteases [1]: no effect on DEVD-cleaving proteases; binding to pro-caspase-9 (autoradiography) [2]: associated with pro-caspase-9; inhibition of caspase-3 [3]: nor inhibited
